The results in this text go back to IntAct's records for PubMed 18812496.

Sequences and labels used below:
B1: Plastid division protein PDV2 (Arabidopsis thaliana (Mouse-ear cress)), Q9XII1 (parent)
chain: MEDEEGIGLILARATELRLKISDCIDNSSTTVSDNGDGNEDLSPGEGRKSEIIGNQDKDFDSISSEDVDEAEAERLLRIRDALEALESQLASLQNLRQRQQYEKQLALSEIDYSRKMLLEKLKEYKGKDFEVLRETTTFAGERVDYENDLLLPPYPVHPPLSLGLDNNNGYLSHLPSKKKSDANGFGSGHVRNEAEAKSPNGGSGGSSHGVIRFLGSVAKIVLPIIGVISLLSASGYGPEMRKRGASLNLFGLLPHRATRGKRTPNQCPPGKVLVIEDGEARCLVKERVEIPFDSVVAKRDVTYGYG
partner: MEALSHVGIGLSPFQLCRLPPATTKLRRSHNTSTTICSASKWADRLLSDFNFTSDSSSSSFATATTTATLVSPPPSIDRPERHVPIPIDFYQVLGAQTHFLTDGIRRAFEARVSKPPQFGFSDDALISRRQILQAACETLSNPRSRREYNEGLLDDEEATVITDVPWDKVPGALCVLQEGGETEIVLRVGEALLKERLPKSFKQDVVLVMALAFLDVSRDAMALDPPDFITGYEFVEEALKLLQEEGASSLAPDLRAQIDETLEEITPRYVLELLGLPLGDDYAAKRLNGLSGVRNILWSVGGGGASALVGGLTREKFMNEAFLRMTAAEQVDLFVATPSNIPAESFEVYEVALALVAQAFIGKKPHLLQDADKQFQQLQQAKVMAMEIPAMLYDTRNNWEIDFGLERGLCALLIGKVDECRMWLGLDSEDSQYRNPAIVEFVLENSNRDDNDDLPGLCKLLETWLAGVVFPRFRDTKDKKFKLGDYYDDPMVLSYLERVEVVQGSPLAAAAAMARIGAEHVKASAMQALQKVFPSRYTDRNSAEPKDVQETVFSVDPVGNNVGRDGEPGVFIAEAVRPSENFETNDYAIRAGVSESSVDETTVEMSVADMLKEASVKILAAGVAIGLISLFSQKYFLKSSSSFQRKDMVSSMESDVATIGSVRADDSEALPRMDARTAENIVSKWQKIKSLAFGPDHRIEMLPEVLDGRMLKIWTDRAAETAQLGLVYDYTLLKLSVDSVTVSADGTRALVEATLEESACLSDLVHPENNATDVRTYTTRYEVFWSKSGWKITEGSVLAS

Variants of B1 are the subject of this test. Conditions: with arc6_arath ARC6, Q9FIG9.
In the case of G307D, the “effect of a mutation on the interaction” value is given as “decreasing interaction”.
